In article PMC7786333, “Integration of diverse DNA substrates by a casposase can be targeted to R-loops in vitro by its fusion to Cas9”:

Molecular target: Casp-Cas9 (Aciduliprofundum boonei T469 / …, UniProt B5IAF4 1-404+=GGSGGSGGSGGSGGSGGSGGSGGS+Q99ZW2:1-1368, internal_change)
Experiment: R-loop formation gel assay (deproteinised); sgran50; 5 mM EDTA; 25 mM Tris pH 7.5, 106 mM KCl, 50 ug/ml BSA, 5 mM EDTA, 2 mM DTT, 9% glycerol, 37 C; 150 nM protein, 300 nM sgRNA, 25 nM Cy5-dsran50, 75 nM unlabelled MW12 dsDNA competitor; 8% acrylamide TBE gel
Conditions: protein: recombinant, tags: His6, label: 5'-Cy5 on ssran50 strand (strand 2), blunt 50 bp DNA target plus sgRNA, PAM TGG

B1: sgran50 + dsran50 (mixed)
RNA: GGUAGACGAUUACAUUGCUACAGUUUUAGAGCUAGAAAUAGCAAGUUAAAAUAAGGCUAGUCCGUUAUCAACUUGAAAAAGUGGCACCGAGUCGGUGCUU
DNA 1: CAACGTCATAGACGATTACATTGCTACATGGAGCTGTCTAGAGGATCCGA
DNA 2: TCGGATCCTCTAGACAGCTCCATGTAGCAATGTAATCGTCTATGACGTTG
Question: Does B1 bind?
Answer: Result: binds
